# Experimental data from patent publication US20020164640A1 (IMMUNEX, published 2002).
# B1: full-length labelled MAL-1 (HA-MAL-1) (other, not shown: small tags and cut ends)
# chain: MASSTSLPAPGSRPKKPLGKMADWFRQTLLKKPKKRPNSPESTSSDASQPTSQDNPLPPSLSSVTSPSLPPTHASDSGSSRWSKDYDVCVCHSEEDLVAAQDLVSYLEGSTASLRCFLQLRDATPGGAIVSELCQALSSSHCRVLLITPGFLQDPWCKYQMLQALTEAPGAEGCTIPLLSGLSRAAYPPELRFMYYVDGRGPDGGFRQVKEAVMRCKLLQEGEGERDSATVSDLL
# notes: Overexpressed in HEK293 cells; also called tagged MAL-1
# Biological target: T1, IRAK (UniProt P51617 1-712, limits assumed)
# T1 construct: Overexpressed in HEK293 cells and detected by western blotting with anti-IRAK; No tag is stated; also called IL-1 receptor associated Kinase; IRAK1
# T1 sequence (P51617 whole entry): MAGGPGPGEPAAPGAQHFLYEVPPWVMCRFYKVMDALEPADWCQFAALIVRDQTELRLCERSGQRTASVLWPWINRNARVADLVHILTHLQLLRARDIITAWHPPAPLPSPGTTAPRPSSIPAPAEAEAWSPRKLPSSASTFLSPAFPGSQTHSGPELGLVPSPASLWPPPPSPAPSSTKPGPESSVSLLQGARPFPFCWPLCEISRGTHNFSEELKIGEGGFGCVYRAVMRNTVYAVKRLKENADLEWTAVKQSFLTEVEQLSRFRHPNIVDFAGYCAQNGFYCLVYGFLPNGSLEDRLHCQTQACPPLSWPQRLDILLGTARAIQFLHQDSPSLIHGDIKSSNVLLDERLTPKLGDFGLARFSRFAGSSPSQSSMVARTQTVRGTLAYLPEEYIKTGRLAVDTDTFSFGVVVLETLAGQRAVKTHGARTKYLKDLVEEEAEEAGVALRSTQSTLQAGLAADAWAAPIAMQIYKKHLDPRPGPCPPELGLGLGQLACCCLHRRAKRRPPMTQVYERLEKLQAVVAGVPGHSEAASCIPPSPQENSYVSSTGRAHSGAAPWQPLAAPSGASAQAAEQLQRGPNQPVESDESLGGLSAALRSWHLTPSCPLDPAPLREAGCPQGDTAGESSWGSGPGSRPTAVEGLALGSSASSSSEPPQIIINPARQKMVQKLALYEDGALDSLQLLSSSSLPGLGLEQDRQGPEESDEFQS
# Experiment: co-immunoprecipitation from transfected HEK293 cells: anti-HA IP, anti-IRAK western blot
# Method: HEK 293 cells were transfected with a 5 x NF-KB reporter gene plasmid and co-transfected with plasmids encoding MAL-1 of SEQ ID NO:2 or MyD88 and increasing concentrations of IRAK. Luciferase reporter gene activity was measured. HEK293 cells were transfected with HA-MAL-1 and IRAK and the resulting overexpressed proteins were immunoprecipitated using an anti-HA antibody to isolate MAL-1 complexes and interactions were detected by western blotting to detect anti-IRAK. IRAK could not be detected in the anti-HA-MAL immunoprecipitates. HEK293 cells were transfected with AU-1-MyD88 and IRAK and the resulting overexpressed proteins were immunoprecipitated using an anti-AU1 antibody to isolate MyD88 complexes and interactions were detected by western blotting for anti-IRAK. IRAK was detected in the anti-Aul-MyD88 immunoprecipitates.
binder,measurement,value
B1,binding result,no binding
